Measurements: US9631002B2, “Methods and compositions for producing active vitamin K-dependent proteins” (The University of North Carolina at Chapel Hill, priority 2010, dated 2017)

Columns and labels:
[1] = system: carboxylation of FIXgla-PC reporter protein in AV12 cells (reduction of vitamin K to KH2); experiment: Cell-based VKOR activity assay in FIXgla-PC/AV12 or FIXgla-PC/VKOR-Y139F/AV12 cells, carboxylated reporter by ELISA; set-up: species or system Syrian golden hamster
[2] = system: carboxylation of FIXgla-PC reporter protein in HEK293 cells (reduction of KO to vitamin K); experiment: Cell-based VKOR activity assay: recombinant VKOR/VKORH expressed in FIXgla-PC/HEK293 cells with KO and warfarin, carboxylated reporter by ELISA; set-up: species or system human

B1: MT-VKORH: Mycobacterium tuberculosis VKOR homologue, NP_217484, SEQ ID NO:18 (protein, listed as Mycobacterium tuberculosis)
chain: MVAARPAERSGDPAAVRVPVPSAWWVLIGGVIGLFASMTLTVEKVRILLDPIYVPSCNVNPIVSCGSVMTTPQASLLGFPNPLLGIAGFTVVVVTGVLAVAKVPLPRWYWIGLAVGILVGVAFVHWLIFQSLYRIGALCPYCMVVWAVIATLLVVVASIVFGPMRENRGSQERVGARLLYQWRWSLATLWFTTVFLLIMVRFWDYSTLI
support of reporter protein carboxylation ([1]; transient expression in FIXgla-PC/AV12 not stably expressing VKOR-Y139F, KO and warfarin (FIG. 19B)): produced significant carboxylated reporter protein | activity in reducing vitamin K to KH2 to support carboxylation ([1]; transient expression in FIXgla-PC/VKOR-Y139F/AV12, KO and warfarin (FIG. 19A)): significant activity | activity relative to human VKOR-Y139F ([2]; 5 μM KO, 4 μM warfarin, 48 h, luciferase-normalized (FIG. 15B)): 2.5 fold | Relative activity: Human Y139F ([2]; VKOR of the organism compared to human Y139F VKOR, cell-based carboxylation): Yes, greater | activity relative to human VKOR (Y139F) ([2]; both human forms carry Y139F, 5 μM KO, 2 μM warfarin): 2 fold

B2: hVKOR M. tuberculosis: human VKOR with residues 122-139 replaced by M. tuberculosis VKOR 129-146, SEQ ID NO:29 (protein)
chain: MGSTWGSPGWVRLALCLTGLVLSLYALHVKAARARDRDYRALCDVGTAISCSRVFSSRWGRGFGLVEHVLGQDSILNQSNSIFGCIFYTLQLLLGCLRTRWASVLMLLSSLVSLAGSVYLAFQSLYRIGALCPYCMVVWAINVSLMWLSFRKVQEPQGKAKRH
modifications: Human VKOR with amino acids 122-139 substituted with amino acids 129-146 of M. tuberculosis VKOR (RefSeq accession no. NP_217484)
ability of human VKOR with replaced residues 122-139 to use vitamin K to carboxylate the reporter ([1]; 11 μM K, 2 μM warfarin, 48 h, FIXgla-PC AV-12 (FIG. 11B)): can utilize vitamin K to produce carboxylated reporter protein | ability of human VKOR with replaced residues 122-139 to use KO to carboxylate the reporter ([2]; 5 μM KO, 2 μM warfarin, 48 h, HEK293 (FIG. 11C)): functions as a VKOR
